{"source": "paper PMC4105053", "origin": "cited, not measured here", "key": {"[1]": {"target": "MMOR Fd (Methylococcus capsulatus) (UniProt P22868)", "sequence (P22868 1-98)": "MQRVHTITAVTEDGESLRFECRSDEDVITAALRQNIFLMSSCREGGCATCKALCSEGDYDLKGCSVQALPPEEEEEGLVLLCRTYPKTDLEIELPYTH"}, "[2]": {"target": "MMOB (Methylococcus capsulatus) (UniProt P18797)", "sequence (P18797 whole entry)": "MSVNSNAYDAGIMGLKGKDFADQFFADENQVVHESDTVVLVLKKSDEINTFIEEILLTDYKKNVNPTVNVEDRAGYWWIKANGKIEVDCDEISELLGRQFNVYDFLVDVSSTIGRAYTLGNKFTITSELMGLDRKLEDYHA"}}, "data": [{"substance": "MMOH (from UniProt P22869)", "values": [{"measurement": "Kd", "setting": "[1]", "result": 900, "unit": "nM"}, {"measurement": "Kd", "setting": "[2]", "result": 550, "unit": "nM"}]}]}
